For orientation: Kd means a measure of binding affinity in units of concentration.

The assay concerns the target cardiac troponin T (recombinant human) (human). Kind of assay: SPR, 37C. (In general: SPR reads the build-up and loss of mass on a sensor chip optically.)

B1: Fab combination 21 (antibody, V domains shown)
VH: EVQLQQSGPELVKPGASVKMSCKASGYTFTDYYMKWVKQSHGKSLEWIGDINPNNGETWYNQKFKDKATLTVDKSSSTAYMQLNSLTSEDSAVYYCATRYFDYWGQGTTLTVSS
VL: DIVLTQSPASLAVSLGQRATISCKASQSVDYDGTSYMNWFQQKAGQPPKRLIYAASNLESGIPARFSGRGSGTDFALNIHPVEEEDAATYYCQQSNEDPYTFGGGTKLEIKR
As to B1, the Kd was 1600 pM.

B2: Fab combination 22 (antibody, V domains shown)
VH: EVQLQQSGPELVKPGASVKMSCKASGYTFTDYYMKWVKQSHGKSLEWIGDINPNNGETWYNQKFKDKATLTVDKSSSTAYMQLNSLTSEDSAVYYCATRVFDFWGQGTTLTVSS
VL: DIVLTQSPASLAVSLGQRATISCKASQSVDYDGTSYMNWFQQKAGQPPKRLIYAASNLESGIPARFSGRGSGTDFALNIHPVEEEDAATYYCQQSNEDPYTFGGGTKLEIKR
For the molecule B2, the Kd is 0.0038 pM.

B3: parental Fab (TnT M-7) (antibody, V domains shown)
VH: EVQLQQSGPELVKPGASVKMSCKASGYTFTDYYMKWVKQSHGKSLEWIGDINPNNGETFYNQKFKDKATLTVDKSSSTAYMQLNSLTSEDSAVYYCATRVFDYWGQGTTLTVSS
VL: DIVLTQSPASLAVSLGQRATISCKASQSVDYDGTSYMNWFQQKAGQPPKRLIYAASNLESGIPARFSGRGSGTDFALNIHPVEEEDAATYYCQQSNEDPYTFGGGTKLEIKR
For the molecule B3, the Kd was 580 pM.

B4: Fab combination 15 (antibody, V domains shown)
VH: EVQLQQSGPELVKPGASVKMSCKASGYTFTDYIMKWVKQSHGKSLEWIGDINPNNGETFYNQKFKDKATLTVDKSSSTAYMQLNSLTSEDSAVYYCATRVFDFWGQGTTLTVSS
VL: DIVLTQSPASLAVSLGQRATISCKASQSVDYDGTSYMNWFQQKAGQPPKRLIYAASNLESGIPARFSGRGSGTDFALNIHPVEEEDAATYYCQQSNEDPYTFGGGTKLEIKR
Regarding B4, the Kd amounted to 1100 pM.

B5: Fab combination 4 (antibody, V domains shown)
VH: EVQLQQSGPELVKPGASVKMSCKASGYTFTDYFMKWVKQSHGKSLEWIGDINPNNGETWYNQKFKDKATLTVDKSSSTAYMQLNSLTSEDSAVYYCATRVFDFWGQGTTLTVSS
VL: DIVLTQSPASLAVSLGQRATISCKASQSVDYDGTSYMNWFQQKAGQPPKRLIYAASNLESGIPARFSGRGSGTDFALNIHPVEEEDAATYYCQQSNEDPYTFGGGTKLEIKR
On to B5, for which the Kd worked out at 2.7 pM.

B6: Fab combination 23 (antibody, V domains shown)
VH: EVQLQQSGPELVKPGASVKMSCKASGYTFTDYYMKWVKQSHGKSLEWIGDINPNNGETWYNQKFKDKATLTVDKSSSTAYMQLNSLTSEDSAVYYCATRYFDFWGQGTTLTVSS
VL: DIVLTQSPASLAVSLGQRATISCKASQSVDYDGTSYMNWFQQKAGQPPKRLIYAASNLESGIPARFSGRGSGTDFALNIHPVEEEDAATYYCQQSNEDPYTFGGGTKLEIKR
On to B6, for which the Kd was determined as 1200 pM.

B7: Fab combination 18 (antibody, V domains shown)
VH: EVQLQQSGPELVKPGASVKMSCKASGYTFTDYYMKWVKQSHGKSLEWIGDINPNNGETFYNQKFKDKATLTVDKSSSTAYMQLNSLTSEDSAVYYCATRYFDYWGQGTTLTVSS
VL: DIVLTQSPASLAVSLGQRATISCKASQSVDYDGTSYMNWFQQKAGQPPKRLIYAASNLESGIPARFSGRGSGTDFALNIHPVEEEDAATYYCQQSNEDPYTFGGGTKLEIKR
As to B7, the Kd was 1600 pM.

B8: Fab combination 17 (antibody, V domains shown)
VH: EVQLQQSGPELVKPGASVKMSCKASGYTFTDYYMKWVKQSHGKSLEWIGDINPNNGETWYNQKFKDKATLTVDKSSSTAYMQLNSLTSEDSAVYYCATRVFDYWGQGTTLTVSS
VL: DIVLTQSPASLAVSLGQRATISCKASQSVDYDGTSYMNWFQQKAGQPPKRLIYAASNLESGIPARFSGRGSGTDFALNIHPVEEEDAATYYCQQSNEDPYTFGGGTKLEIKR
As to B8, the Kd is 540 pM.

B9: Fab combination 5 (antibody, V domains shown)
VH: EVQLQQSGPELVKPGASVKMSCKASGYTFTDYFMKWVKQSHGKSLEWIGDINPNNGETWYNQKFKDKATLTVDKSSSTAYMQLNSLTSEDSAVYYCATRYFDFWGQGTTLTVSS
VL: DIVLTQSPASLAVSLGQRATISCKASQSVDYDGTSYMNWFQQKAGQPPKRLIYAASNLESGIPARFSGRGSGTDFALNIHPVEEEDAATYYCQQSNEDPYTFGGGTKLEIKR
Consider B9, for which the Kd came to 230 pM.

B10: Fab combination 12 (antibody, V domains shown)
VH: EVQLQQSGPELVKPGASVKMSCKASGYTFTDYIMKWVKQSHGKSLEWIGDINPNNGETWYNQKFKDKATLTVDKSSSTAYMQLNSLTSEDSAVYYCATRVFDFWGQGTTLTVSS
VL: DIVLTQSPASLAVSLGQRATISCKASQSVDYDGTSYMNWFQQKAGQPPKRLIYAASNLESGIPARFSGRGSGTDFALNIHPVEEEDAATYYCQQSNEDPYTFGGGTKLEIKR
For B10, the Kd came to 320 pM.

B11: Fab combination 8 (antibody, V domains shown)
VH: EVQLQQSGPELVKPGASVKMSCKASGYTFTDYFMKWVKQSHGKSLEWIGDINPNNGETFYNQKFKDKATLTVDKSSSTAYMQLNSLTSEDSAVYYCATRYFDFWGQGTTLTVSS
VL: DIVLTQSPASLAVSLGQRATISCKASQSVDYDGTSYMNWFQQKAGQPPKRLIYAASNLESGIPARFSGRGSGTDFALNIHPVEEEDAATYYCQQSNEDPYTFGGGTKLEIKR
With B11, the Kd came out at 200 pM.

B12: Fab combination 1 (antibody, V domains shown)
VH: EVQLQQSGPELVKPGASVKMSCKASGYTFTDYFMKWVKQSHGKSLEWIGDINPNNGETFYNQKFKDKATLTVDKSSSTAYMQLNSLTSEDSAVYYCATRVFDYWGQGTTLTVSS
VL: DIVLTQSPASLAVSLGQRATISCKASQSVDYDGTSYMNWFQQKAGQPPKRLIYAASNLESGIPARFSGRGSGTDFALNIHPVEEEDAATYYCQQSNEDPYTFGGGTKLEIKR
Regarding B12, the Kd is 620 pM.

B13: Fab combination 9 (antibody, V domains shown)
VH: EVQLQQSGPELVKPGASVKMSCKASGYTFTDYIMKWVKQSHGKSLEWIGDINPNNGETFYNQKFKDKATLTVDKSSSTAYMQLNSLTSEDSAVYYCATRVFDYWGQGTTLTVSS
VL: DIVLTQSPASLAVSLGQRATISCKASQSVDYDGTSYMNWFQQKAGQPPKRLIYAASNLESGIPARFSGRGSGTDFALNIHPVEEEDAATYYCQQSNEDPYTFGGGTKLEIKR
Turning to B13, the Kd came out at 1200 pM.

B14: Fab combination 3 (antibody, V domains shown)
VH: EVQLQQSGPELVKPGASVKMSCKASGYTFTDYFMKWVKQSHGKSLEWIGDINPNNGETWYNQKFKDKATLTVDKSSSTAYMQLNSLTSEDSAVYYCATRYFDYWGQGTTLTVSS
VL: DIVLTQSPASLAVSLGQRATISCKASQSVDYDGTSYMNWFQQKAGQPPKRLIYAASNLESGIPARFSGRGSGTDFALNIHPVEEEDAATYYCQQSNEDPYTFGGGTKLEIKR
As to B14, the Kd amounted to 370 pM.

B15: Fab combination 2 (antibody, V domains shown)
VH: EVQLQQSGPELVKPGASVKMSCKASGYTFTDYFMKWVKQSHGKSLEWIGDINPNNGETWYNQKFKDKATLTVDKSSSTAYMQLNSLTSEDSAVYYCATRVFDYWGQGTTLTVSS
VL: DIVLTQSPASLAVSLGQRATISCKASQSVDYDGTSYMNWFQQKAGQPPKRLIYAASNLESGIPARFSGRGSGTDFALNIHPVEEEDAATYYCQQSNEDPYTFGGGTKLEIKR
In the case of B15, the Kd was determined as 460 pM.

B16: Fab combination 7 (antibody, V domains shown)
VH: EVQLQQSGPELVKPGASVKMSCKASGYTFTDYFMKWVKQSHGKSLEWIGDINPNNGETFYNQKFKDKATLTVDKSSSTAYMQLNSLTSEDSAVYYCATRVFDFWGQGTTLTVSS
VL: DIVLTQSPASLAVSLGQRATISCKASQSVDYDGTSYMNWFQQKAGQPPKRLIYAASNLESGIPARFSGRGSGTDFALNIHPVEEEDAATYYCQQSNEDPYTFGGGTKLEIKR
As for B16, the Kd came to 450 pM.

B17: Fab combination 19 (antibody, V domains shown)
VH: EVQLQQSGPELVKPGASVKMSCKASGYTFTDYYMKWVKQSHGKSLEWIGDINPNNGETFYNQKFKDKATLTVDKSSSTAYMQLNSLTSEDSAVYYCATRVFDFWGQGTTLTVSS
VL: DIVLTQSPASLAVSLGQRATISCKASQSVDYDGTSYMNWFQQKAGQPPKRLIYAASNLESGIPARFSGRGSGTDFALNIHPVEEEDAATYYCQQSNEDPYTFGGGTKLEIKR
Regarding B17, the Kd came to 460 pM.

B18: Fab combination 13 (antibody, V domains shown)
VH: EVQLQQSGPELVKPGASVKMSCKASGYTFTDYIMKWVKQSHGKSLEWIGDINPNNGETWYNQKFKDKATLTVDKSSSTAYMQLNSLTSEDSAVYYCATRYFDFWGQGTTLTVSS
VL: DIVLTQSPASLAVSLGQRATISCKASQSVDYDGTSYMNWFQQKAGQPPKRLIYAASNLESGIPARFSGRGSGTDFALNIHPVEEEDAATYYCQQSNEDPYTFGGGTKLEIKR
Consider B18, for which the dissociation constant (Kd) is 620 pM.

B19: Fab combination 20 (antibody, V domains shown)
VH: EVQLQQSGPELVKPGASVKMSCKASGYTFTDYYMKWVKQSHGKSLEWIGDINPNNGETFYNQKFKDKATLTVDKSSSTAYMQLNSLTSEDSAVYYCATRYFDFWGQGTTLTVSS
VL: DIVLTQSPASLAVSLGQRATISCKASQSVDYDGTSYMNWFQQKAGQPPKRLIYAASNLESGIPARFSGRGSGTDFALNIHPVEEEDAATYYCQQSNEDPYTFGGGTKLEIKR
For the molecule B19, the Kd stood at 1100 pM.

B20: Fab combination 11 (antibody, V domains shown)
VH: EVQLQQSGPELVKPGASVKMSCKASGYTFTDYIMKWVKQSHGKSLEWIGDINPNNGETWYNQKFKDKATLTVDKSSSTAYMQLNSLTSEDSAVYYCATRYFDYWGQGTTLTVSS
VL: DIVLTQSPASLAVSLGQRATISCKASQSVDYDGTSYMNWFQQKAGQPPKRLIYAASNLESGIPARFSGRGSGTDFALNIHPVEEEDAATYYCQQSNEDPYTFGGGTKLEIKR
Take B20: the Kd came to 1000 pM.

B21: Fab combination 16 (antibody, V domains shown)
VH: EVQLQQSGPELVKPGASVKMSCKASGYTFTDYIMKWVKQSHGKSLEWIGDINPNNGETFYNQKFKDKATLTVDKSSSTAYMQLNSLTSEDSAVYYCATRYFDFWGQGTTLTVSS
VL: DIVLTQSPASLAVSLGQRATISCKASQSVDYDGTSYMNWFQQKAGQPPKRLIYAASNLESGIPARFSGRGSGTDFALNIHPVEEEDAATYYCQQSNEDPYTFGGGTKLEIKR
Consider B21, for which the Kd came out at 3400 pM.

Values taken from patent publication US12275778 (dated 2025).
